{
  "source": "patent US20160009789A1",
  "about": "(published 2016)",
  "binders": {"B1": {"name": "2F5 wild-type IgG (antibody, V domains shown)", "VH": "RITLKESGPPLVKPTQTLTLTCSFSGFSLSDFGVGVGWIRQPPGKALEWLAIIYSDDDKRYSPSLNTRLTITKDTSKNQVVLVMTRVSPVDTATYFCAHRRGPTTLFGVPIARGPVNAMDVWGQGITVTISS", "VL": "ALQLTQSPSSLSASVGDRITITCRASQGVTSALAWYRQKPGSPPQLLIYDASSLESGVPSRFSGSGSGTEFTLTISTLRPEDFATYYCQQLHFYPHTFGGGTRVDVRR"}, "B2": {"name": "HC+gLC (antibody, V domains shown)", "VH": "QVQLVQSGGQMKKPGESMRISCRASGYEFIDCTLNWIRLAPGKRPEWMGWLKPRGGAVNYARPLQGRVTMTRDVYSDTAFLELRSLTVDDTAVYFCTRGKNCDYNWDFEHWGRGTPVIVSS", "VL": "EIVLTQSPATLSLSPGERATLSCRASQYSVSSYLAWYQQKPGQAPRLLIYDASNRATGIPARFSGSGSGRDFTLTISSLEPEDFAVYYCQQFGQGTKLEIK"}, "B3": {"name": "gHC+gLC (antibody, V domains shown)", "VH": "not shown", "VL": "B2 VL"}, "B4": {"name": "gHC+LC (antibody, V domains shown)", "VH": "not shown", "VL": "EIVLTQSPGTLSLSPGETAIISCRTSQYGSLAWYQQRPGQAPRLVIYSGSTRAAGIPDRFSGSRWGPDYNLTISNLESGDFGVYYCQQYEFFGQGTKVQVDI"}},
  "key": {"[1]": {"molecular_target": "gp41 MPER peptide (residues 657 to 669 of gp41) linked to a C-terminal C9 tag", "experiment": "SPR"}, "[2]": {"molecular_target": "HXBc2", "experiment": "ELISA"}},
  "data": [
    {"binder": "B1", "values": [
      {"measurement": "Kd", "setting": "[1]", "value": 9.5, "unit": "nM"}
    ]},
    {"binder": "B2", "values": [
      {"measurement": "EC50", "setting": "[2]", "value": 2.14, "unit": "µg/mL"}
    ]},
    {"binder": "B3", "values": [
      {"measurement": "EC50", "setting": "[2]", "value": "> 50", "unit": "µg/mL"}
    ]},
    {"binder": "B4", "values": [
      {"measurement": "EC50", "setting": "[2]", "value": 21.4, "unit": "µg/mL"}
    ]}
  ]
}
